Test results from patent US20170183380A1 (published 2017).
Where no end group is shown, it is not given here.

Experiments:
[1] = target: HER2 on TUBO cells (mice cell line), HER2-overexpressing (UniProt P06494 23-1257); assay: cell-based or functional assay
[2] = target: HER2 on HER2-overexpressing breast cancer cells (SK-Br-3: human cell line) (human, UniProt P04626 23-1255); assay: cell-based or functional assay

Chain of HER2 on TUBO cells (mice cell line), HER2-overexpressing (P06494 23-1257): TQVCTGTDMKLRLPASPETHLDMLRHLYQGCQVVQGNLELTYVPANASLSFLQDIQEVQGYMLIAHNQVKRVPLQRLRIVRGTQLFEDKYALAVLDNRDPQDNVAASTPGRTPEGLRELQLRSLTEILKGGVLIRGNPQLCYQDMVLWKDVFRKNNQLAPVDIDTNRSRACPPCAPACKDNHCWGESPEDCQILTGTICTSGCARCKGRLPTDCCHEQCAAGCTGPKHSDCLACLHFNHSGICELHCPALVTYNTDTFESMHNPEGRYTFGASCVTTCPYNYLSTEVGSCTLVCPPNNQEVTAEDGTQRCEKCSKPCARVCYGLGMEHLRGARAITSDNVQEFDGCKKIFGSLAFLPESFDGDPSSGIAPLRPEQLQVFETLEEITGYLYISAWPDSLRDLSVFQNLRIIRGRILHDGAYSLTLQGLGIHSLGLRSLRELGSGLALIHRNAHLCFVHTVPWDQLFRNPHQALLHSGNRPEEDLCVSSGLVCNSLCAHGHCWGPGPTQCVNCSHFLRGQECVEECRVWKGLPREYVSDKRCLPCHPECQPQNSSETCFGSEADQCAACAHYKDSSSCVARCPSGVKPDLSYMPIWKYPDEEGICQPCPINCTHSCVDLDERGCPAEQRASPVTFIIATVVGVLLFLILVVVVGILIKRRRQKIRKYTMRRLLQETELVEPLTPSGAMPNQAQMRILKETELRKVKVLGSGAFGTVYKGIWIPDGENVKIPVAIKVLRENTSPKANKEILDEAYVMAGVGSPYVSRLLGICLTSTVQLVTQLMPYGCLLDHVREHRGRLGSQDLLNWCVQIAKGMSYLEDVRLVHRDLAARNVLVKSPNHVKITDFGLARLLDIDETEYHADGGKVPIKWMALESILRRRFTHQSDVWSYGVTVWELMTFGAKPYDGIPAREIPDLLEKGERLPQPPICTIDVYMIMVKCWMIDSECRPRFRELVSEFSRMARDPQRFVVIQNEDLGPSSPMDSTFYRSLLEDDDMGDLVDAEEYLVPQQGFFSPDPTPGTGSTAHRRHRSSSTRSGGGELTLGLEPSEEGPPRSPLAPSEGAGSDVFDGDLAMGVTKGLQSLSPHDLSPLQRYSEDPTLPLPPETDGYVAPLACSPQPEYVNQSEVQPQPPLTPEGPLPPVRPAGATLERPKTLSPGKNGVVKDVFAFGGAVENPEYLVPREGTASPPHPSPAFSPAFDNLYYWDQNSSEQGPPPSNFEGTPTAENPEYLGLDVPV

Binder | IC50 (cytotoxicity, MTT assay), TUBO cells, 3 hours [1] [µM] | IC50 (cytotoxicity, MTT assay), TUBO cells, 6 hours [1] [µM] | IC50 (cytotoxicity, MTT assay), SKBR3 cells, 3 hours [2] [µM] | IC50 (cytotoxicity, MTT assay), SKBR3 cells, 6 hours [2] [µM]
C(Maleimide‑PEG2000‑DSPE)GGGLTVSPWY (not fully specified; also: order of spacer and peptide assumed) [LTVSPWY (SEQ ID NO: 1) peptide-liposome, post inserted liposome 25 Ligand] | 11.1 | 5.5 | 24.9 | 12.8
C(Maleimide‑PEG2000‑DSPE)GGGLTVSPWY (not fully specified; also: order of spacer and peptide assumed) [LTVSPWY (SEQ ID NO: 1) peptide-liposome, post inserted liposome 50 Ligand] | 9.7 | 4.6 | 21.5 | 10.4
C(Maleimide‑PEG2000‑DSPE)GGGLTVSPWY (not fully specified; also: order of spacer and peptide assumed) [LTVSPWY (SEQ ID NO: 1) peptide-liposome, post inserted liposome 100 Ligand] | 8.08 | 3.9 | 17.9 | 6.07
C(Maleimide‑PEG2000‑DSPE)GGGLTVSPWY (not fully specified; also: order of spacer and peptide assumed) [LTVSPWY (SEQ ID NO: 1) peptide-liposome, post inserted liposome 200 Ligand] | 6.5 | 2.5 | 15.2 | 4.9
